Test results from US20200291112A1.

Molecular target: Human GPA33 (Novoprotein), recombinant protein immobilized on CM5 chips (human) (UniProt Q99795)
Test: SPR (Biacore T100), GPA33 recombinant protein immobilized on CM5 chip, antibody flowed over

Human GPA33 (Novoprotein), recombinant protein immobilized on CM5 chips (human), sequence (Q99795 22-235 limits assumed): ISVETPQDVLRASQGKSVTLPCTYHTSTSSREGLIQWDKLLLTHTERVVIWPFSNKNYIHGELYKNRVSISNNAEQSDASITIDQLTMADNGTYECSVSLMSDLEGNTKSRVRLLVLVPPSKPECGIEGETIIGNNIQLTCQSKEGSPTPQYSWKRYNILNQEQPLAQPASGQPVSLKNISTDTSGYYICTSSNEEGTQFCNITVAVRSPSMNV

Substance: hA33-mC825 BsAb (original humanized hA33 in hA33-mC825 bispecific format, Cheal et al. 2016) (bispecific antibody)
- Kd: 1.59 nM
- koff: 0.00294 s⁻¹
- kon: 1.85e+06 M⁻¹ s⁻¹
